Here are results for five molecules from article PMC5305270.

Where a chain is given by its changes, count along the chain named. Numbers in names are those of the source.

The labels stand for the following.
T1: GST::DEP-1intra-DA (intracellular domain of C. elegans DEP-1 with the substrate trapping mutation D1241A, GST fusion), G5EGJ9
T1 chain: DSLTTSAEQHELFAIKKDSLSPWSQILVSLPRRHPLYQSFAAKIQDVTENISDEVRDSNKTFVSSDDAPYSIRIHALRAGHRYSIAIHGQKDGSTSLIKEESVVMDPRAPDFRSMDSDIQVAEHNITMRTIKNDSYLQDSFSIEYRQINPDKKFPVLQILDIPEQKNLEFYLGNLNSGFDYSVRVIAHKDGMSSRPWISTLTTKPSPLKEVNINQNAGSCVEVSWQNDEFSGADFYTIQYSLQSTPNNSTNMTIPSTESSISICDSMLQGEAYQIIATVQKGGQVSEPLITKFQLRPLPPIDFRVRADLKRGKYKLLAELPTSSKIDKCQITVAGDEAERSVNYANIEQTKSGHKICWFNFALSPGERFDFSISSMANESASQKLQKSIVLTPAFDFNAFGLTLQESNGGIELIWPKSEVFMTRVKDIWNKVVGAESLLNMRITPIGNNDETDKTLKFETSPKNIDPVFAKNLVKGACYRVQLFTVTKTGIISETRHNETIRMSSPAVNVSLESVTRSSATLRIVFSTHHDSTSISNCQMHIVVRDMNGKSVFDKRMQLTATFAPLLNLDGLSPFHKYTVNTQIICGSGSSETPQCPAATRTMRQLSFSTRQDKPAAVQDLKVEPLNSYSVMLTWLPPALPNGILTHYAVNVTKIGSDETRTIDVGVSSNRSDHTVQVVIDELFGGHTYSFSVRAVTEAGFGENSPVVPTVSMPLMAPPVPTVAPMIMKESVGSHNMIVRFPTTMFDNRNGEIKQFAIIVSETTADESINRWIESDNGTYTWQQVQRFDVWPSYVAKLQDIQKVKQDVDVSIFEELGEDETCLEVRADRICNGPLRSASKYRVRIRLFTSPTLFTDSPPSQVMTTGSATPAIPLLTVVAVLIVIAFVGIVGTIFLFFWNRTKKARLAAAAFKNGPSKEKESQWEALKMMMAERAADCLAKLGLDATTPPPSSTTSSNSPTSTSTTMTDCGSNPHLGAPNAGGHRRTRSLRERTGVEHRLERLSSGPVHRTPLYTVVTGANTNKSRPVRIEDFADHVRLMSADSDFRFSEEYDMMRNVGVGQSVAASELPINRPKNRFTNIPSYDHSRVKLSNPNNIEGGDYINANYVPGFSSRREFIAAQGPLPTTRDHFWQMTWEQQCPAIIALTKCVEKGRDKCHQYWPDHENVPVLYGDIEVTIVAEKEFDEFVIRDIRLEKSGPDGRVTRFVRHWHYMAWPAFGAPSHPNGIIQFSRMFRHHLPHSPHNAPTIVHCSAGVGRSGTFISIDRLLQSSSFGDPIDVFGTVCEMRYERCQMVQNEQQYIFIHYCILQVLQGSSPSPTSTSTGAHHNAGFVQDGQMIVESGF

B1: PAT-3::GFP (wild type), Q27874 Y792A; Y804A (protein)
chain: ASDWKTGEVTGKVVEKSEFPCYSLSRDNYTCSACIQYHESCAWCGAPMFDEKKPYARCDSRAKLMEHGCPNSYIEDPATKLDITEDSKLSDQGQVESEEEAVQIKPQEMYVEIRPKSRVRFNVTYRQAVDYPVDLYYLMDLSYSMKDDKQKLSELGDLLAERMRTVTKNFRLGFGSFIDKKLMPFIDPRIEKQLSPCPTPCAEPYGFKHQMSLTTNTAKFKAEVDKAEISGNLDAPEGGFDAVVQALACNKTIGWRERARKMIVFSTDAGFHFAGDGRLAGVVEPNDGTCHLDREGYYTETLNQDYPSIALLHQMIKDRKANVIFAVTKNNQDLYTQLSNALPDVSSSVGVLANDSRNIVDLIEKEYLKISEKIIMVDNANASEGLKLTYRSMCLDGTTLKDTNVCEGIRVGDEVQFEVTLENTHCIDKRDFVLRIGPSGLDETLIVNVKVLCDCDCERQDRIVTNSADCNGGDMVCGVCRCKGGNVGKYCECNRPGMSTAALNEKCKRTNESAICEGRGVCNCGRCECNPRANPEEQISGEFCECDNFNCPRHDRKICAEHGECNCGKCICAPGWTGRACECPISTDSCLSANGKICNGKGECICGRCRCFDSPDGNRYSGAKCEICPTCPTKCVEYKNCVMCQQWQTGPLNETACDQCEFKVIPVEELPNLNETTPCQFVDPADDCTFYYLYYYDEATDNATVWVRKHKDCPPPVPVLAIVLGVIAGIVILGILLLLLWKLLTVLHDRSEYATFNNERLMAKWDTNENPIAKQATTTFKNPVAAGKAN
B2: PAT-3::GFP (wild type), Q27874 Y792A (protein)
chain: B1 chain with A785Y
B3: PAT-3::GFP (wild type), Q27874 Y804A (protein)
chain: B1 chain with A773Y
B4: PAT-3::GFP (wild type), Q27874 TTT796-798AAA (protein)
chain: B1 chain with A773Y, T777A, T778A, T779A, A785Y
B5: PAT-3::GFP (wild type), Q27874 Y772A (protein)
chain: B1 chain with Y753A, A773Y, A785Y

The experiment deals with T1, GST::DEP-1intra-DA (intracellular …). Description: GST pull-down, anti-GFP Western blot, densitometry. The following applies: chain shown with the change; three independent experiments; band intensities normalized to input; parent: est. 100; read off a plot.
Regarding B1, the percent of parent worked out at 13%.

B2: the percent of parent was determined as 10%.

B3: the percent of parent came to 92%.

As for B4, the percent of parent came out at 13%.

Regarding B5, the percent of parent turned out to be 37%.
